From publication PMC9240080 come the findings set out here.

Assay [1] addresses SpySwitch. In words: ITC.
Assay [2] addresses SpySwitch. The experiment in a line: ITC; pH 7.5.

With SpyTag003-MBP, the stoichiometry N in the assay with SpySwitch [1] was found to be 1. In the assay with SpySwitch [2], this substance yielded a Kd of 1.5 µM.
SpyTag-MBP: in the assay with SpySwitch [1], the stoichiometry N is 1. For the same substance, the Kd with SpySwitch [2] is 1.1 µM.
